Legend:
[1] = molecular target: T1, ATP7B metal binding domains 5-6 (human, UniProt P35670 486-633); assay: cell-based or functional assay
T1 sequence (looked up): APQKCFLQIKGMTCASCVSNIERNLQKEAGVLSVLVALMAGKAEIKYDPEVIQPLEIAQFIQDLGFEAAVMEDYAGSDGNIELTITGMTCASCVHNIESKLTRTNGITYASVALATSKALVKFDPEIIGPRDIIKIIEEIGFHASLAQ

[2] = molecular target: T1, ATP7B metal binding domains 5-6; assay: NMR titration; 15N-1H HSQC of apo-15N-hGrx1 (320-350 uM) titrated with unlabelled apo-Atox1 or apo-WLN5-6 to 2.0:1 (partner:hGrx1); no Cu; 4 °C; 10 mM MES/Na, 50 mM NaCl, 1 mM TCEP, pH 6.0; intensity changes of the Cys26 and Thr69 peaks fitted to a 1:1 binding model; conditions: both partners purified

B1: human glutaredoxin-1 (enzyme)
chain: MAQEFVNCKIQPGKVVVFIKPTCPYCRRAQEILSQLPIKQGLLEFVDITATNHTNEIQDYLQQLTGARTVPRVFIGKDCIGGCSDLVSLQQSGELLTRLKQIGALQ
notes: human glutaredoxin-1 (hGrx1), UniProtKB P35754; printed as a 106-residue construct (excluding non-native residues left at the N-terminus by cleavage); 15N-labelled (or 13C/15N-labelled) for NMR; used as apo protein and loaded with Cu(I) (1:1); Non-native residues of the PreScission site remain at the N-terminus; also called hGrx1; Grx1; source: E. coli BL21 Codon Plus (DE3), purified (glutathione …)
With B1 the “Cu(I) distribution WLN5-6:hGrx1/Atox1 after incubation of Cu(I)-hGrx1 with apo-Atox1 and apo-WLN5-6 at 1:1:1, SEC-ICP-MS” value [1] was ~9 ratio WLN5-6:hGrx1/Atox1 and the Kd [2] was 7 ± 4 µM.

Reference: article PMC7057996, “Human glutaredoxin-1 can transfer copper to isolated metal binding domains of the P1B-type ATPase, ATP7B” (Scientific Reports, 2020)
